Assay results: paper PMC10760632, “Characterization of the SF3B1–SUGP1 interface reveals how numerous cancer mutations cause mRNA missplicing” (Genes & Development, 2023)

Molecular target: T1, SF3B core complex (human, UniProt O75533 453-1304; Q15393 1-1217; Q9BWJ5 1-86; Q7RTV0 1-98)
T1 construct: SF3B1 C-terminal HEAT domain, residues 453-1304; SF3B3, residues 1-1217; SF3B5, residues 1-86; PHF5A, residues 1-98; SF3B3 carries an N-terminal His6 and a TEV protease cleavage site; no cleavage step is described in the purification; also called SF3B complex; source: Tni insect cells (baculovirus), coexpressed, purified (Ni-NTA, Superdex 200 gel filtration); copies: + + +
Experiment: SEC; purified SF3B complex and DHX15 (113–795)–SUGP1 (433–645) heterodimer mixed at a molar ratio of 1:5, overnight at 4°C, Superose 6 Increase 10/300 in 20 mM HEPES pH 7.9, 300 mM KCl, 5% glycerol, 5 mM DTT; complex fractions rerun and peak analysed by SDS-PAGE
Details: both partners purified

T1 sequence (O75533 453-1304, chain 1 of 4): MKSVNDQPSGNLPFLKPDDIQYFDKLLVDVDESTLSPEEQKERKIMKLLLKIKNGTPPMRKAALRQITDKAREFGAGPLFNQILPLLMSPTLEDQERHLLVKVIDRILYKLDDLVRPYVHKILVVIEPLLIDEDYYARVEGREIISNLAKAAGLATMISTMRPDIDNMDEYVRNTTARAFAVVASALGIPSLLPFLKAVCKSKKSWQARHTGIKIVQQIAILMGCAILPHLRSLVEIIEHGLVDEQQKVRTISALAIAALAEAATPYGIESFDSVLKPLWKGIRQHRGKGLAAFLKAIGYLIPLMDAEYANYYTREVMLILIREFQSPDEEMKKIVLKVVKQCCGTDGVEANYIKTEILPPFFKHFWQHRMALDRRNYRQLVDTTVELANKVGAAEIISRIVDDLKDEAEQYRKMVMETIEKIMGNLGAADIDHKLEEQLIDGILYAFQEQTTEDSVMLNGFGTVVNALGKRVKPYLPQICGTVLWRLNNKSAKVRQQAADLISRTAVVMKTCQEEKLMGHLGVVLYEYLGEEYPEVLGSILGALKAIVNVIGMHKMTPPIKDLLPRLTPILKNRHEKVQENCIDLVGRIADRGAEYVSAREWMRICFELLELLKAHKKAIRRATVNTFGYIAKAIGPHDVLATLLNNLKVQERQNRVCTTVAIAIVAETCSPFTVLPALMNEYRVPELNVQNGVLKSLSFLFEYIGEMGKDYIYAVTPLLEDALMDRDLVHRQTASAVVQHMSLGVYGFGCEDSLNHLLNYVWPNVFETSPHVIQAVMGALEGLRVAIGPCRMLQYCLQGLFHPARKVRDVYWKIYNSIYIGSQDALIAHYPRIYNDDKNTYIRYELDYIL
T1 sequence (Q15393 whole entry, chain 2 of 4, the tested form may be a part): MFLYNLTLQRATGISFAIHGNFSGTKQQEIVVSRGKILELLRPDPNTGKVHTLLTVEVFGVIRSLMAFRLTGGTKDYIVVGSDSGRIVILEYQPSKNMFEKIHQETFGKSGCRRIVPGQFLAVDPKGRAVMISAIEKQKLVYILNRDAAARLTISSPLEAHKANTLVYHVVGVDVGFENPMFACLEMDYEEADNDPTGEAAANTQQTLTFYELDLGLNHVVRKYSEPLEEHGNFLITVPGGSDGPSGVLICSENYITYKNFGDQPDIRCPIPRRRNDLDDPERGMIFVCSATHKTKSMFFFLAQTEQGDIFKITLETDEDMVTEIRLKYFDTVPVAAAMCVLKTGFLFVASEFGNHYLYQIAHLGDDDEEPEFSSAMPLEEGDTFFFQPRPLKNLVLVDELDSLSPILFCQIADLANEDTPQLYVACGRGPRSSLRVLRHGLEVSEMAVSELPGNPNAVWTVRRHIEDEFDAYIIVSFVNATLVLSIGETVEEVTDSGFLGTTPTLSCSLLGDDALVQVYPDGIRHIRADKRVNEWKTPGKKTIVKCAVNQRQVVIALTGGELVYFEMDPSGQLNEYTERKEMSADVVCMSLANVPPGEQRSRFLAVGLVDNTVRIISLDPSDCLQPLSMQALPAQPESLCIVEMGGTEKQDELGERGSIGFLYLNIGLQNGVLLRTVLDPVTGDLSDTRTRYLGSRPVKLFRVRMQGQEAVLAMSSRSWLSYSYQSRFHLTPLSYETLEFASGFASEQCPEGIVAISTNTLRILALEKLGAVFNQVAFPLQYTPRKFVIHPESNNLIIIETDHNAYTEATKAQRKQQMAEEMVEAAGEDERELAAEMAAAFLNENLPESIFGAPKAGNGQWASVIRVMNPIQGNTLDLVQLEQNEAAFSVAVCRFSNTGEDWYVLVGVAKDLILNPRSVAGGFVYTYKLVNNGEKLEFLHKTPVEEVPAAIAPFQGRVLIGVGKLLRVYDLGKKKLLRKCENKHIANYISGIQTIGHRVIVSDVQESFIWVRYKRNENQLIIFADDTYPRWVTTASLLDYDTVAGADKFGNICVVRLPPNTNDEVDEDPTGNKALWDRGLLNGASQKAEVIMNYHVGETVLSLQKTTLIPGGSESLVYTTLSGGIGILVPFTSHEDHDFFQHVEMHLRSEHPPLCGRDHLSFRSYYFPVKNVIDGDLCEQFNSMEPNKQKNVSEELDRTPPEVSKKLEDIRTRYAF
T1 sequence (Q9BWJ5 whole entry, chain 3 of 4, the tested form may be a part): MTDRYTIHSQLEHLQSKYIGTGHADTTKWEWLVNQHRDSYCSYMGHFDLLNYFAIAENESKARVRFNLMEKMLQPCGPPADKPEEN
T1 sequence (Q7RTV0 1-98, chain 4 of 4): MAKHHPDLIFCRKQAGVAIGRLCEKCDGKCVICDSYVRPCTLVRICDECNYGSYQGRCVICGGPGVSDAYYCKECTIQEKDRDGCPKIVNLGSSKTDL

B1: DHX15 (113–795)–SUGP1 (433–645) heterodimer (complex, human)
chain 1: QCINPFTNLPHTPRYYDILKKRLQLPVWEYKDRFTDILVRHQSFVLVGETGSGKTTQIPQWCVEYMRSLPGPKRGVACTQPRRVAAMSVAQRVADEMDVMLGQEVGYSIRFEDCSSAKTILKYMTDGMLLREAMNDPLLERYGVIILDEAHERTLATDILMGVLKEVVRQRSDLKVIVMSATLDAGKFQIYFDNCPLLTIPGRTHPVEIFYTPEPERDYLEAAIRTVIQIHMCEEEEGDLLLFLTGQEEIDEACKRIKREVDDLGPEVGDIKIIPLYSTLPPQQQQRIFEPPPPKKQNGAIGRKVVVSTNIAETSLTIDGVVFVIDPGFAKQKVYNPRIRVESLLVTAISKASAQQRAGRAGRTRPGKCFRLYTEKAYKTEMQDNTYPEILRSNLGSVVLQLKKLGIDDLVHFDFMDPPAPETLMRALELLNYLAALNDDGDLTELGSMMAEFPLDPQLAKMVIASCDYNCSNEVLSITAMLSVPQCFVRPTEAKKAADEAKMRFAHIDGDHLTLLNVYHAFKQNHESVQWCYDNFINYRSLMSADNVRQQLSRIMDRFNLPRRSTDFTSRDYYINIRKALVTGYFMQVAHLERTGHYLTVKDNQVVQLHPSTVLDHKPEWVLYNEFVLTTKNYIRTCTDIKPEWLVKIAPQYYDMSNFPQCEAKRQLDRIIAKLQSKEYSQY
chain 2: GVTELSDAQKKQLKEQQEMQQMYDMIMQHKRAMQDMQLLWEKAVQQHQHGYDSDEEVDSELGTWEHQLRRMEMDKTREWAEQLTKMGRGKHFIGDFLPPDELEKFMETFKALKEGREPDYSEYKEFKLTVENIGYQMLMKMGWKEGEGLGSEGQGIKNPVNKGTTTVDGAGFGIDRPAELSKEDDEYEAFRKRMMLAYRFRPNPLNNPRRPYY
notes: DHX15 (DEAH-box helicase 15), residues 113-795, lacks the N-terminal unstructured region; DHX15 was fused with N-terminal His6, MBP and a TEV protease cleavage site; also called DHX15–SUGP1; DHX15–SUGP1 heterodimer; source: Tni insect cells (baculovirus), coexpressed, purified as in Zhang et al. 2022a
binding result: binds
